This is an account of results in the supplement of paper PMC9112550, “Optimization of the antimicrobial peptide Bac7 by deep mutational scanning” (BMC Biology, 2022).

For this series, the system named is Escherichia coli TOP10. Put plainly: shrunken log2 fold change of peptide-encoding DNA abundance (4.5 h post-induction vs induction); higher = less antimicrobial activity (less host growth inhibition). To be noted: time post-induction: 4.5 h; library: site-saturation at positions 5, 18, 19, 20.
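Also: peptides expressed intracellularly from a pBAD plasmid library in pooled LB shake-flask culture, induced with 0.3% L-arabinose, DNA abundance read by NGS, three biological replicates, DESeq2 with apeglm shrinkage.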

Take RRIRRRPPRLPRPRPRPTTNPRP: the “shrunken log2 fold change” value came out at 0.338.
As for RRIRNRPPRLPRPRPRPKYAPRP, the figure is -0.292; as for RRIRTRPPRLPRPRPRPFPMPRP, -0.596.
For RRIRNRPPRLPRPRPRPFHYPRP, the “shrunken log2 fold change” value is -0.925.
As for RRIRERPPRLPRPRPRPPKRPRP, the figure is 0.259; as for RRIRGRPPRLPRPRPRPFEEPRP, 0.231; as for RRIRPRPPRLPRPRPRPVMVPRP, 0.171.
As for RRIRTRPPRLPRPRPRPRGWPRP, the figure is 0.897; as for RRIRYRPPRLPRPRPRPIKSPRP, -0.616.
In the case of RRIRWRPPRLPRPRPRPRHEPRP, the “shrunken log2 fold change” value is -0.0681.
In the case of RRIRERPPRLPRPRPRPLGQPRP, the “shrunken log2 fold change” value stood at 0.0127.
For RRIRKRPPRLPRPRPRPEAVPRP the value was 0.15; for RRIRDRPPRLPRPRPRPFMRPRP, 0.05; for RRIRGRPPRLPRPRPRPYNSPRP, -0.359.
As for RRIRQRPPRLPRPRPRPIYGPRP, the “shrunken log2 fold change” value is -0.00674.
For RRIRCRPPRLPRPRPRPMQWPRP the value was 0.226; for RRIRRRPPRLPRPRPRPGHAPRP, 0.398.
Regarding RRIRTRPPRLPRPRPRPWAVPRP, the “shrunken log2 fold change” value is -0.0894.
For RRIRRRPPRLPRPRPRPFTIPRP the value was 0.0518; for RRIRYRPPRLPRPRPRPGQTPRP, -0.0773.
Consider RRIRHRPPRLPRPRPRPTMQPRP, for which the “shrunken log2 fold change” value is -0.0838.
RRIRRRPPRLPRPRPRPWDYPRP: the “shrunken log2 fold change” value turned out to be 0.0184.
As for RRIRKRPPRLPRPRPRPYYTPRP, the figure is -0.34; as for RRIRGRPPRLPRPRPRPYHGPRP, -0.459.
As for RRIRNRPPRLPRPRPRPNQWPRP, the figure is -0.171; as for RRIRNRPPRLPRPRPRPFKKPRP, -0.263; as for RRIRLRPPRLPRPRPRPWNAPRP, -0.249.
Turning to RRIRRRPPRLPRPRPRPGIRPRP, the “shrunken log2 fold change” value worked out at 0.108.
As for RRIRERPPRLPRPRPRPTGWPRP, the “shrunken log2 fold change” value was found to be 0.0993.
On to RRIRFRPPRLPRPRPRPVETPRP, for which the “shrunken log2 fold change” value is -0.0497.
In the case of RRIRARPPRLPRPRPRPCQFPRP, the “shrunken log2 fold change” value is -0.0602.
For RRIRLRPPRLPRPRPRPNTWPRP the value was -0.245; for RRIRKRPPRLPRPRPRPSGRPRP, 0.288.
Consider RRIRKRPPRLPRPRPRPARSPRP, for which the “shrunken log2 fold change” value turned out to be 0.89.
RRIRDRPPRLPRPRPRPLCLPRP: the “shrunken log2 fold change” value was 0.0562.
For RRIRARPPRLPRPRPRPAREPRP the value was 0.835.
For RRIRVRPPRLPRPRPRPQSDPRP the value was -0.0819.
As for RRIRGRPPRLPRPRPRPYMTPRP, the figure is 0.109; as for RRIRHRPPRLPRPRPRPQAEPRP, -0.0254.
As for RRIRSRPPRLPRPRPRPIGAPRP, the “shrunken log2 fold change” value came to 0.058.
For RRIRARPPRLPRPRPRPDMKPRP the value was -0.0184; for RRIRSRPPRLPRPRPRPNHLPRP, -0.814; for RRIRIRPPRLPRPRPRPHTMPRP, -0.776.
As for RRIRNRPPRLPRPRPRPIEHPRP, the figure is -0.307; as for RRIRLRPPRLPRPRPRPWFAPRP, -0.112.
Consider RRIRGRPPRLPRPRPRPQRLPRP, for which the “shrunken log2 fold change” value was 0.329.
On to RRIRARPPRLPRPRPRPAFYPRP, for which the “shrunken log2 fold change” value was 0.117.
As for RRIRKRPPRLPRPRPRPVLKPRP, the figure is 0.185.
As for RRIRLRPPRLPRPRPRPRFYPRP, the figure is 0.074.
For the sequence RRIRGRPPRLPRPRPRPMKAPRP, the “shrunken log2 fold change” value is 0.231.
As for RRIRYRPPRLPRPRPRPANNPRP, the figure is -0.45.
With RRIRSRPPRLPRPRPRPAMQPRP, the “shrunken log2 fold change” value was -0.173.
For RRIRKRPPRLPRPRPRPKPHPRP the value was 0.747; for RRIRDRPPRLPRPRPRPLTTPRP, 0.135.
For RRIRSRPPRLPRPRPRPKCAPRP the value was 0.0261; for RRIRRRPPRLPRPRPRPMRCPRP, 0.384.
As for RRIRCRPPRLPRPRPRPVHKPRP, the figure is 0.287.
For the sequence RRIRVRPPRLPRPRPRPWEPPRP, the “shrunken log2 fold change” value turned out to be 0.13.
RRIRPRPPRLPRPRPRPTGMPRP: the “shrunken log2 fold change” value turned out to be 0.141.
In the case of RRIRARPPRLPRPRPRPTNPPRP, the “shrunken log2 fold change” value came to 0.288.
As for RRIRYRPPRLPRPRPRPFNSPRP, the figure is -0.169.
As for RRIRRRPPRLPRPRPRPPKFPRP, the figure is 0.298.
Consider RRIRTRPPRLPRPRPRPCYPPRP, for which the “shrunken log2 fold change” value was -0.425.
Take RRIRRRPPRLPRPRPRPPMDPRP: the “shrunken log2 fold change” value amounted to 0.385.
As for RRIRQRPPRLPRPRPRPNFMPRP, the figure is 0.0789.
For the sequence RRIRVRPPRLPRPRPRPGVWPRP, the “shrunken log2 fold change” value is 1.88.
As for RRIRSRPPRLPRPRPRPDQCPRP, the figure is -0.209.
For RRIRWRPPRLPRPRPRPHQEPRP, the “shrunken log2 fold change” value worked out at 0.0101.
As for RRIRCRPPRLPRPRPRPYAMPRP, the figure is -0.436.
In the case of RRIRERPPRLPRPRPRPIKPPRP, the “shrunken log2 fold change” value is -0.363.
As for RRIRTRPPRLPRPRPRPIMPPRP, the figure is -0.331.
As to RRIRTRPPRLPRPRPRPFFPPRP, the “shrunken log2 fold change” value came to 0.191.
As for RRIRVRPPRLPRPRPRPSKLPRP, the “shrunken log2 fold change” value was -0.797.
For RRIRCRPPRLPRPRPRPEHRPRP the value was -0.0739; for RRIRKRPPRLPRPRPRPIKKPRP, -0.077.
As for RRIRRRPPRLPRPRPRPDIWPRP, the figure is 0.418; as for RRIRWRPPRLPRPRPRPANCPRP, 0.0179; as for RRIRHRPPRLPRPRPRPTGRPRP, -0.089.
Turning to RRIRYRPPRLPRPRPRPCKIPRP, the “shrunken log2 fold change” value was -0.116.
As for RRIRWRPPRLPRPRPRPSRWPRP, the figure is 0.209; as for RRIRRRPPRLPRPRPRPFYCPRP, -0.162; as for RRIRGRPPRLPRPRPRPMFCPRP, 0.178.
As to RRIRDRPPRLPRPRPRPMNSPRP, the “shrunken log2 fold change” value is -0.0173.
Take RRIRFRPPRLPRPRPRPIIGPRP: the “shrunken log2 fold change” value is -0.024.
As for RRIRCRPPRLPRPRPRPDKHPRP, the figure is -0.333; as for RRIRFRPPRLPRPRPRPPFIPRP, -0.236.
As for RRIRHRPPRLPRPRPRPRHTPRP, the figure is -0.0794; as for RRIRGRPPRLPRPRPRPPMPPRP, 0.659; as for RRIRWRPPRLPRPRPRPWFQPRP, -0.125.
Regarding RRIRKRPPRLPRPRPRPSKWPRP, the “shrunken log2 fold change” value was -0.119.
For RRIRARPPRLPRPRPRPQWIPRP the value was -0.0374; for RRIRDRPPRLPRPRPRPEECPRP, -0.00963; for RRIRPRPPRLPRPRPRPLIIPRP, -0.605.
For RRIRVRPPRLPRPRPRPDEIPRP the value was 0.0183; for RRIRKRPPRLPRPRPRPDTKPRP, -0.0643; for RRIRIRPPRLPRPRPRPIWKPRP, -0.0131.
For the sequence RRIRLRPPRLPRPRPRPPRLPRP, the “shrunken log2 fold change” value amounted to 0.46.
As to RRIRTRPPRLPRPRPRPACTPRP, the “shrunken log2 fold change” value was found to be 0.212.
As for RRIRRRPPRLPRPRPRPCEPPRP, the figure is -0.0751; as for RRIRARPPRLPRPRPRPNGNPRP, -0.191.
Take RRIRLRPPRLPRPRPRPKFGPRP: the “shrunken log2 fold change” value stood at 0.146.
For RRIRYRPPRLPRPRPRPWILPRP the value was -0.482; for RRIRHRPPRLPRPRPRPWPFPRP, -0.285; for RRIRHRPPRLPRPRPRPESEPRP, -0.00193.
As for RRIRSRPPRLPRPRPRPVVWPRP, the figure is 0.462; as for RRIRNRPPRLPRPRPRPNRFPRP, 0.0252.
Regarding RRIRQRPPRLPRPRPRPYPFPRP, the “shrunken log2 fold change” value is -0.035.
As for RRIRNRPPRLPRPRPRPLETPRP, the figure is -0.0418; as for RRIRERPPRLPRPRPRPWLNPRP, -0.00136; as for RRIRQRPPRLPRPRPRPSMYPRP, -1.39.
For RRIRGRPPRLPRPRPRPFETPRP the value was 2.8.
As for RRIRNRPPRLPRPRPRPAHFPRP, the figure is 0.292; as for RRIRDRPPRLPRPRPRPKKPPRP, -0.0462; as for RRIRNRPPRLPRPRPRPVRPPRP, 0.555.
For the sequence RRIRSRPPRLPRPRPRPVPPPRP, the “shrunken log2 fold change” value was found to be 0.329.
On to RRIRVRPPRLPRPRPRPHSDPRP, for which the “shrunken log2 fold change” value was 0.0538.
For RRIRMRPPRLPRPRPRPLNAPRP the value was 0.35; for RRIRLRPPRLPRPRPRPQTTPRP, -0.152.
Regarding RRIRGRPPRLPRPRPRPNESPRP, the “shrunken log2 fold change” value was 0.302.
RRIRHRPPRLPRPRPRPFNYPRP: the “shrunken log2 fold change” value turned out to be 0.0485.
For RRIRGRPPRLPRPRPRPIAIPRP, the “shrunken log2 fold change” value is 0.216.
As for RRIRKRPPRLPRPRPRPVTAPRP, the figure is 0.147; as for RRIRCRPPRLPRPRPRPSVNPRP, -0.348; as for RRIRGRPPRLPRPRPRPDPAPRP, 1.06.
As for RRIRIRPPRLPRPRPRPLIKPRP, the figure is -0.756.
